In patent publication US20200247894A1 (Regeneron, published 2020):
Residue numbers refer to the chain shown, from its start.

T1: D2 domain of human IL2Rγ extracellular domain expressed with a C-terminal myc-myc-hexahistidine tag (human)
T1 construct: also called human IL2Rγ domain 2
T1 chain: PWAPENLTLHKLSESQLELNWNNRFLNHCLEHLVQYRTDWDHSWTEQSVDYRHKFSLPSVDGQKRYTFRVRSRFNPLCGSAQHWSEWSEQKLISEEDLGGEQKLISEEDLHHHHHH

T2: human IL2Rγ (endogenously expressed on cells) (human, UniProt P31785 23-369)
T2 sequence (looked up): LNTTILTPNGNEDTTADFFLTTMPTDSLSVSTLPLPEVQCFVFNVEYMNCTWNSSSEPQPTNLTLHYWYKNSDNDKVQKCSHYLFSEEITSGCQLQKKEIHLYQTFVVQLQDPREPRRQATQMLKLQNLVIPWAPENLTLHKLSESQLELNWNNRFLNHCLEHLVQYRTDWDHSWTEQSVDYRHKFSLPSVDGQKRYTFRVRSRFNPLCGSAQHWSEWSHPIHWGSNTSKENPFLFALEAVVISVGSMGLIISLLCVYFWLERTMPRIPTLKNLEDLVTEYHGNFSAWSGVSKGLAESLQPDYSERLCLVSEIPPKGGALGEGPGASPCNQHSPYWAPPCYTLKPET

T3: D1 domain of human IL-2Rγ extracellular domain expressed with a C-terminal myc-myc-hexahistidine tag (human)
T3 construct: also called human IL2Rγ domain 1
T3 chain: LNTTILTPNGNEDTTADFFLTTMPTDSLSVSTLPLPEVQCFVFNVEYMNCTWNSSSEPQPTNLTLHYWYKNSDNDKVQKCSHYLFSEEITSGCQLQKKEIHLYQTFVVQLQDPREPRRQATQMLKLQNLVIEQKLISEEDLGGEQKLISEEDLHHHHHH

B1: H4H12886P (antibody, human IgG4 S228P, kappa, V domains shown)
VH: EVQLVESGGGLVKPGGSLRLSCAASGFTFSTAWMSWVRQSPGRGLEWVGRMKSKTDGGTTFYAAPVKGRFTISRDDSKNTLYLQMNSLKTEDTAVYYCTTGLVPAFYKYYGVDVWGQGTTVTVSS
VL: DIQMTQSPSSLSASVGDRITITCQASQDITNYLNWYQQKPGKAPNLLIYDASNLVTGVPSRFSGSGSGTDFTFTILSLQPEDIATYYCQQYDSLLTFGPGTKVDIKR
notes: human IgG4
B2: H4H12899P (antibody, human IgG4 S228P, kappa, V domains shown)
VH: QVQLVESGGDLVKPGGSLRLSCATSGFTFSDFYMTWIRQAPGKGLEWISYISNSGSIVKYADSVKGRFTISRDNAKNSLYLQMNSLRAEDTAIYYCARFYGDRWGQGTLVTVSS
VL: DIQLTQSPSFLSASVGDRVTITCWASQGISTFLAWYQQKPGKAPKLLIYAASTLQSGVPSRFSGSGSGTDFTLTISSLQPEDFATYHCQQLNNYPWTFGQGTKVEIKR
notes: human IgG4
B3: H4H12900P (antibody, human IgG4 S228P, kappa, V domains shown)
VH: QVQLVESGGGLVKPGGSLRLSCEASGFTFNDFYMTWIRQAPGKGLEWIAYISKSGDKMRYADSVKGRFSTSRDNAKNSLSLQMNSLRAEDTAVYYCARFYGDIWGQGTLVTVSS
VL: B2 VL with G28D, T31S, A34V, K45N, T53A, D70E, T85S, H87Y, Q89E
notes: human IgG4
B4: H4H12884P (antibody, human IgG4 S228P, kappa, V domains shown)
VH: QVQLQESGPGLVKPSQTLSLTCTVSGGSISSGGYYWSWIRQHPGKGLEWIGFIYYSGKTYYNPSLKSRLTISVDTSKSQFSLKLRSVTAADTAVYYCARLGYTNSAGWFDPWGQGTLVTVSS
VL: DIQMTQSPSSLSASVGDRVTITCRASQSISSYLNWYQQKPGKAPNLLIYAASSLQSGVPSRFSGSGSGTDFTLTISSLQPEDLATYYCQQSYTTPFTFGPGTKVDIKR
notes: human IgG4
B5: H4H12890P (antibody, human IgG4 S228P, kappa, V domains shown)
VH: EVQLVESGGGLVQPGGSLRLSCAASGFTFNNYAMHWVRQAPGKGLEYVSSISSSGGSTYYEDSVKGRFTISRDNSKNTLYLQMGSLRAEDMAVYYCARSFYGSGTYYDTFDMWGQGTMVTVSS
VL: B4 VL with V15I, S31R, N45K, G64A, L83F, T93S, P100Q, V104L, D105E
notes: human IgG4
B6: H4H12924P2 (antibody, human IgG4 S228P, kappa, V domains shown)
VH: EVQLVESGGGLVQPGRSLRLSCAASGFTLEDYAMHWVRQAPGKGLEWVSGISWNRGSTGYADSVKGRFTISRDNAKNSLYLQMTSLRAEDTALYYCAKGFYSMDVWGQGTTVTVSS
VL: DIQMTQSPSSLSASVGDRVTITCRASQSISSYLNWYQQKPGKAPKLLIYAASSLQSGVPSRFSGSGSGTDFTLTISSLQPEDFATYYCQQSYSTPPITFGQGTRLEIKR
notes: human IgG4
B7: H4H13545P2 (antibody, human IgG4 S228P, kappa, V domains shown)
VH: QVQLQQSGPGLVKPSQTLSLTCDISGDSVSSNIATWNWIRQSPSRGLEWLGRTYYRSKWYKDYAVSVKSRITINPDTSKNQFSLQVNSVTPEDTAVYYCARMTGPRYYFEYWGQGTLVTVSS
VL: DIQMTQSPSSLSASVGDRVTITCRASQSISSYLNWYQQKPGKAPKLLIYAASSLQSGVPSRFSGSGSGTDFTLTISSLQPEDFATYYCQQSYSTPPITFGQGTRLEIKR
notes: human IgG4
B8: H4H13544P2 (antibody, human IgG4 S228P, kappa, V domains shown)
VH: QLQLQESGPGLVKPSETLSLTCTVSGGSISIKNYYWGWIRQPPGKGLEWIGSIYYSGTTYYNPSLKSRVTISVDTSKNQFSLKLSSVTAADTAVYHCARHGYSYGHGWFDPWGQGTLVTVSS
VL: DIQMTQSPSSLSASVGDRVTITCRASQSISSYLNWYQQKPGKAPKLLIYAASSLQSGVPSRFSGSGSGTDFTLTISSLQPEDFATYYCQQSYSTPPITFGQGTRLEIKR
notes: human IgG4
B9: H4H12858P (antibody, human IgG4 S228P, kappa, V domains shown)
VH: EVQLVESGGDLVQPGGSLRLSCTASGFIFRNYAMNWVRQAPGKGLEWLSGILGSNDNTYYVDSVKGRFTISRDNSRNTLYLQMNSLRAEDSAVYYCAKGDAGGFDYWGQGTLVTVSS
VL: DVVMTQSPLSLPVILGQPASISCRSSQSLVSSDGNTYLNWFQQRPGQSPRRLIYKVSNRDSGVPDRFSGSGSGTDFTLKISRVEAEDVGAYYCMQGSYWPPTFGQGTKLEIKR
notes: human IgG4; also called REGN9433
B10: H4H13538P (antibody, human IgG4 S228P, kappa, V domains shown)
VH: EVQLVESGGGLVQPGGSLGLSCAASGFTFSNYAMSWVRQAPGKGLEWVSAVSGGGGGTYYADSVKGRFTISRDNSKNTVLLQMNSLRAEDTAVYYCARGRTGGLDYWGPGTLVTVSS
VL: B9 VL with L15F, S31D, F41L, K55E, K79T, A90I, S97T, Y98R, Q105G, L109V
notes: human IgG4
B11: H4H12908P (antibody, human IgG4 S228P, kappa, V domains shown)
VH: EVQLVESGGRLVQPGGSLRLSCEASGFTFSNYGMTWVRQAPGKGLEWVSVISGSDNRKYYAESVKGRFTISRDNSKNTLYLQMNSLRAEDTAVYYCAKLGYSRSSKDFYYGMDVWGQGTTVTVSS
VL: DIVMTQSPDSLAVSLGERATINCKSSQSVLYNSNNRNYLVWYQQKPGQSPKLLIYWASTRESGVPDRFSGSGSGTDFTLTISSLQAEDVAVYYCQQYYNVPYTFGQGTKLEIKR
notes: human IgG4
B12: H4H13541P (antibody, human IgG4 S228P, kappa, V domains shown)
VH: EVQLVESGGGVVRPGGSLRLSCAASGFIFDDYDMSWVRQPPGRGLEWVSGIDWFGGTRGYADSMKGRFTISRDNAKNSLYLQMNSLRVEDTAFYYCARGGAIVGAVTPFDYWGQGTLVTVSS
VL: DIQMTQSPSSLSASVGNRVTLSCRASQSINTYLSWYQQRPGKAPKLLIYAASSLQSGVPSRFSGSGAGTDFTLTISSLQPEDFATYYCQQSYSAPLTFGGGTKVEIKR
notes: human IgG4

Molecular target: T1, D2 domain of human IL2Rγ extracellular …
Assay: SPR, mAb captured on anti-hFc, 25 C
Experimental: (§1) Equilibrium dissociation constants (KD values) for IL-2Rγ binding to purified anti-IL2Rγ monoclonal antibodies were determined using a Biacore 4000 instrument equipped with a real-time surface plasmon resonance biosensor. All binding studies were performed in 10 mM HEPES, 150 mM NaCl, 3 mM EDTA, and 0.05% v/v Surfactant Tween-20, pH 7.4 (HBS-ET) running buffer at 25° C. and 37° C. The Biacore sensor surface was first derivatized by amine coupling with a monoclonal mouse anti-human Fc antibody (GE, # BR-1008-39) to capture anti-IL2Rγ monoclonal antibodies.

Binder | 100 nM Ag Bound [RU] | Kd [nM] | koff [s⁻¹] | kon [M⁻¹ s⁻¹] | t½ [min] | binding result
B1 | 35 | 0.535 | 0.000148 | 276000 | 78 | –
B2 | -1 | – | – | – | – | –
B3 | -1 | – | – | – | – | –
B4 | 1 | – | – | – | – | no binding (tested: 100 nM)
B5 | -1 | – | – | – | – | –
B6 | 1 | – | – | – | – | no binding (tested: 100 nM)
B7 | 5 | – | – | – | – | no binding (tested: 100 nM)
B8 | 5 | – | – | – | – | no binding (tested: 100 nM)
B9 | 0 | – | – | – | – | –
B10 | 6 | – | – | – | – | no binding (tested: 100 nM)
B11 | -1 | – | – | – | – | –
B12 | 10 | – | – | – | – | no binding (tested: 100 nM)

Molecular target: T1, D2 domain of human IL2Rγ extracellular …
Assay: SPR, mAb captured on anti-hFc, 37 C
Experimental: as §1

Binder | 100 nM Ag Bound [RU] | Kd [nM] | koff [s⁻¹] | kon [M⁻¹ s⁻¹] | t½ [min]
B1 | 26 | 11.4 | 0.000377 | 33100 | 31
B2 | 0 | – | – | – | –
B3 | 1 | – | – | – | –
B4 | 2 | – | – | – | –
B5 | 1 | – | – | – | –
B6 | 0 | – | – | – | –
B7 | 3 | – | – | – | –
B8 | 4 | – | – | – | –
B9 | -1 | – | – | – | –
B10 | 6 | – | – | – | –
B11 | -1 | – | – | – | –
B12 | 7 | – | – | – | –

These binders were tested against T2, human IL2Rγ (endogenously expressed on …) (assay: cell-based or functional assay).

Binder | IC50; IL-4 250 pM; Ramos.2G6.4C10/STAT3-luc [M] | IC50; IL-7 50 pM; NK92/hIL7R/STAT3-luc [M] | IC50; IL-9 20 pM; NK92/hIL7R/STAT3-luc [M] | IC50; IL-15 60 pM; NK92/hIL7R/STAT3-luc [M] | Max Inhibition (%); IL-2 30 pM; NK92/hIL7R/STAT3-luc [%] | Max Inhibition (%); IL-4 250 pM; Ramos.2G6.4C10/STAT3-luc [%] | Max Inhibition (%); IL-7 50 pM; NK92/hIL7R/STAT3-luc [%] | Max Inhibition (%); IL-9 20 pM; NK92/hIL7R/STAT3-luc [%] | Max Inhibition (%); IL-15 60 pM; NK92/hIL7R/STAT3-luc [%] | Max Inhibition (%); IL-21 5 pM; NK92/hIL7R/STAT3-luc [%]
B1 | > 1e-07 | > 1e-07 | > 1e-07 | > 1e-07 | 27 | 92 | 81 | 84 | 64 | 18
B4 | – | 2.3e-09 | – | – | 13 | 19 | 34 | – | – | –
B5 | > 1e-07 | > 1e-07 | – | – | 15 | 54 | 66 | 36 | 35 | –

Molecular target: T3, D1 domain of human IL-2Rγ extracellular …
Assay: SPR, mAb captured on anti-hFc, 37 C
Experimental: as §1
(§2) The dissociation of monoclonal antibody bound IL2Rγ reagents were monitored for 8-10 minutes in HBS-ET running buffer. Kinetic association (kₐ) and dissociation (kd) rate constants were determined by fitting the real-time sensorgrams to a 1:1 binding model using Scrubber 2.0c curve fitting software. Binding dissociation equilibrium constants (KD) and dissociative half-lives (t_{1/2}) were calculated from the kinetic rate constants as: […]

Binder | 100 nM Ag Bound [RU] | binding result | Kd [nM] | koff [s⁻¹] | kon [M⁻¹ s⁻¹] | t½ [min]
B1 | 0 | no binding (tested: 100 nM) | – | – | – | –
B2 | 1 | – | – | – | – | –
B3 | 2 | – | – | – | – | –
B4 | 32 | – | 32.9 | 0.00442 | 134000 | 2.6
B5 | 2 | – | – | – | – | –
B6 | -1 | – | – | – | – | –
B7 | 4 | – | – | – | – | –
B8 | 22 | – | 225 | 0.0105 | 46400 | 1.1
B9 | 1 | no binding (tested: 100 nM) | – | – | – | –
B10 | 2 | – | – | – | – | –
B11 | 0 | – | – | – | – | –
B12 | 2 | – | – | – | – | –

Molecular target: T3, D1 domain of human IL-2Rγ extracellular …
Assay: SPR, mAb captured on anti-hFc, 25 C
Experimental: as §1, §2

Binder | 100 nM Ag Bound [RU] | binding result | Kd [nM] | koff [s⁻¹] | kon [M⁻¹ s⁻¹] | t½ [min]
B1 | 0 | – | – | – | – | –
B2 | 0 | no binding (tested: 100 nM) | – | – | – | –
B3 | 0 | no binding (tested: 100 nM) | – | – | – | –
B4 | 51 | – | 11.8 | 0.00196 | 166000 | 6
B5 | 1 | no binding (tested: 100 nM) | – | – | – | –
B6 | 1 | – | – | – | – | –
B7 | 8 | no binding (tested: 100 nM) | – | – | – | –
B8 | 24 | – | 57.8 | 0.00207 | 35800 | 6
B9 | 1 | – | – | – | – | –
B10 | 2 | no binding (tested: 100 nM) | – | – | – | –
B11 | 1 | no binding (tested: 100 nM) | – | – | – | –
B12 | 2 | no binding (tested: 100 nM) | – | – | – | –
